Laboratory results published in PMC6353875, “The EZH2 SANT1 domain is a histone reader providing sensitivity to the modification state of the H4 tail” (Scientific Reports, 2019).

Tests used:
[1] = target: T1, EZH2 SRM-SANT1 (residues 141–251) (human, UniProt Q15910 141-251); assay: NMR titration; 15N-HSQC spectra of 0.05–0.10 mM 15N-EZH2 SRM-SANT1 with increasing concentrations of histone peptide; 25 °C; Kd from normalized CSPs, one-site model accounting for ligand depletion, averaged over significantly perturbed residues; conditions: both partners purified
T1 construct: Enhancer of Zeste Homologue 2 (EZH2), human, residues 141-251: stimulation response motif (SRM), linker and SANT1 domain; cDNA from OpenBiosystems; Uniformly 15N-enriched for the NMR titrations; untagged in the pull-down; also called EZH2 SANT1; source: E. coli Rosetta2 (DE3) pLysS, purified (glutathione agarose, PreScission cleavage, ion exchange, size exclusion); not shown: GST, N-terminal, …

[2] = target: T1, EZH2 SRM-SANT1 (residues 141–251); assay: pull-down; 1 μg purified untagged SRM-SANT1 with 1 μg biotin-tagged H4 peptide overnight at 4 °C in 150 mM NaCl, 50 mM Tris (pH 6.5), 3 mM DTT; captured on streptavidin sepharose, four washes, coomassie staining; triplicates quantified with ImageJ; conditions: both partners purified

T1 sequence (Q15910 141-251): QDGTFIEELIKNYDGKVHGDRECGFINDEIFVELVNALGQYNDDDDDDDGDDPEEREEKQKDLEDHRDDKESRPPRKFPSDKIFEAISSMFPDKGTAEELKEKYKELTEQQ

B1: unmodified histone H2B peptide (residues 1–11) (peptide, UniProt P62807 2-12, looked up)
peptide: PEPAKSAPAPK
notes: histone H2B N-terminal tail, residues 1-11; also called H2B (1–11); H2B tail; source: synthetic peptide, bought: AnaSpec (65442-1)
With B1 the “fold weaker than the H4 tail” value [1] was roughly 20 fold.

B2: unmodified histone H4 peptide (residues 11–21) (peptide, UniProt P62805 12-22, looked up)
peptide: GKGGAKRHRKV
notes: histone H4, residues 11-21 (holds the basic patch); also called H4(11–21); source: synthetic peptide, custom synthesized by GenScript
Work on B2 yielded a Kd [1] of 700 ± 200 µM.

B3: biotinylated unmodified histone H4 peptide (residues 11–27) (peptide, UniProt P62805 12-28, looked up)
peptide: GKGGAKRHRKVLRDNIQ
modifications: biotin (end not stated)
notes: histone H4, residues 11-27; also called unmodified H4 (11–27); source: synthetic peptide, bought: EpiCypher (SKU:12-0035)
B3: binds [2].
